This is an account of results in patent publication US11827911B2, “Chimeric bacteriophage lysin with activity against Staphylococci bacteria” (priority 2008, dated 2023).

One data set deals with VISA strain Mu50. The data set is described as follows: Checkerboard broth-microdilution assay. The class given is cell-based, Staphylococcus aureus. To be noted: Staphylococcus aureus, VISA. An excerpt:
(§1) We used the checkerboard broth-microdilution assay to test the interaction of ClyS with vancomycin and with oxacillin. […] Isobolograms for ClyS with vancomycin and ClyS with oxacillin was plotted by transcribing the enzyme concentrations along the inhibitory line on the microtiter plate in an x/y plot.
On the technique in general: Broth dilution looks for growth in wells or tubes with falling amounts of substance.

In a further data set the test system is MRSA strain MW2. The experiment in a line: Systemic MRSA infection model, survival. The settings on record: 100 μg/mouse of oxacillin alone, 10 days. The class given is in vivo, FVB/NJ mice. As to the method: In order to assess whether ClyS treatment could prevent death resulting from systemic MRSA infections, 4 week old FVB/NJ mice were intraperitoneally injected with ˜5×10^5 CFU of the community-acquired MRSA strain MW2 in 5% mucin. Preliminary experiments determined that 5×10^5 CFU was 10× the LD100 dose for a twenty-four hour period. Furthermore, within 3 hours of IP injection the MRSA infection was systemic. i.e., MRSA were recovered in high numbers from heart, liver, spleen, and kidney (data not shown). Treatment occurred three hours post-infection, with either 20 mM phosphate buffer or 1 mg of ClyS in 20 mM phosphate buffer injected IP (intraperitoneally). Mice were then monitored for survival over ten days. The results from three independent experiments were combined (ClyS treatment, n=16; buffer treatment, n=14) and the mice survival data plotted with a Kaplan Meier Survival curve (FIG. 12), Within twenty-four hours all of the control mice died of bacterial sepsis, while only 2/16 of ClyS treated mice died at forty-eight hours, and the remaining mice (14/16, 88%) survived over the course of the experiments (FIG. 12).
To determine if this effect could be seen in our systemic MRSA infection model, FVB/NJ mice were intraperitoneally injected with ˜5×10^5 CFUs of the MRSA strain MW2 as above. Three hours post infection mice were treated in parallel, with a lower IP dose of 130 μg/mouse of ClyS combined with different concentrations of oxacillin (10-100 μg/mouse) or buffer alone controls. Preliminary experiments determined that an ED30 dose of ClyS (130 μg/mouse) had minimal efficacy to evaluate the effect of combinatorial treatment with oxacillin (data not shown). Mice were monitored for survival for 10 days and the results of 5 independent experiments were combined and plotted in a Kaplan Meier Survival curve (FIG. 14).

A further data set relates to MRSA strain COL. The experiment in a line: Checkerboard broth-microdilution assay. Type of data set: cell-based, Staphylococcus aureus. To be noted: Staphylococcus aureus, read-out: MIC.
Source text: as §1

The test system of the next data set is staphylococcal strains. The settings on record: by altering peptide cross-bridges; cited from earlier work.
Data set [1] is described as follows: Solubility of expressed lysins and chimeras. How it is done:
In another embodiment, the lysin is a chimeric protein that comprises an endopeptidase domain of the S. aureus Twort lysin upstream of the phiNM3 CWT domain (SEQ ID NO:1). The chimeric polypeptide is preferably sufficiently soluble in phosphate buffered saline (PBS). Preferred levels of solubility in PBS for the chimeric lysins is at least about 1 mg/ml and more preferably at least about 3 mg/mL. in PBS. […] One example of such a lysin is provided in SEQ ID NO:2 (AD127), shown in FIG. 5A and consisting of the Twort lysin endopeptidase domain attached to the phiNM3 CWT domain (SEQ ID NO:1). The isolated polypeptide of SEQ ID NO:2 (AD 127) was constructed by engineering S. epidermidis autolysin amidase and Twort lysin endopeptidase domains upstream of phiNM3 CWT domain, respectively.
Traditionally, Bacillus-specific lysins are expressed at high levels and are soluble in E. coli. Therefore, our first attempt was to engineer a 16-amino acid peptide (4) that is conserved in several S. aureus-specific lysins (Lu J Z, Fujiwara T, Komatsuzawa H, Sugai M, Sakon J. 2006. Cell wall-targeting domain of glycylglycine endopeptidase distinguishes among peptidoglycan cross-bridges. (Lue et al. (2006) J. Biol. Chem. 281(1):549-58) The catalytic domain of the Bacillus-specific lysin PlyB was used to generate chimera AD 103 (FIG. 4) (SEQ ID NO: 13). The chimeras were tested for expression, solubility and activity. Then the entire C-terminal CWT domain of PlyB (6) was replaced by the putative C-terminal domain of S. aureus phage Twort lysin (8) to obtain AD 105 (SEQ ID NO: 14). […] Since the lysostaphin catalytic domain […] (10) in AD 112 was of bacterial origin, we attempted to engineer a phage-derived catalytic domain upstream of the lysostaphin CWT. For this, the endopeptidase domain in Twort lysin (14) was used to construct chimera AD 119 (SEQ ID NO:3).

For the next data set, the system named is S. aureus. The experiment in a line: Lytic assays of chimeric lysins against S. aureus. Type of data set: cell-based, Staphylococcus aureus. To be noted: for lytic/killing activity against S. aureus: qualitative.

Source text for S. aureus: For this, the endopeptidase domain in Twort lysin (14) was used to construct chimera AD 119 (SEQ ID NO:3). […] To overcome low expression of AD 127 construct, the entire chimera gene was cloned into expression vector pJML6 to generate pAD 138.

Consider `CN[C@H](CC(C)C)C(=O)N[C@H]1C(=O)N[C@@H](CC(N)=O)C(=O)N[C@H]2C(=O)N[C@H]3C(=O)N[C@H](C(=O)N[C@H](C(=O)O)c4cc(O)cc(O)c4-c4cc3ccc4O)[C@H](O)c3ccc(c(Cl)c3)Oc3cc2cc(c3O[C@@H]2O[C@H](CO)[C@@H](O)[C@H](O)[C@H]2O[C@H]2C[C@](C)(N)[C@H](O)[C@H](C)O2)Oc2ccc(cc2Cl)[C@H]1O` [vancomycin, reference compound], for which, in the data set on VISA strain Mu50, the minimum inhibitory concentration (MIC) (as a rule, the lowest concentration that inhibits growth of the organism) was determined as 8 µg/mL. As to `Cc1onc(-c2ccccc2)c1C(=O)N[C@@H]1C(=O)N2[C@@H]1SC(C)(C)[C@@H]2C(=O)O` [oxacillin, reference compound], the survival in the data set with MRSA strain MW2 was 35%. For the same molecule, the MIC with MRSA strain COL was 32 µg/mL. Turning to “lysostaphin: staphylolytic enzyme produced by Staphylococcus simulans”, the “frequency of developing resistance” value in the data set on staphylococcal strains is 10^−6.

B1: AD 112: S. epidermidis autolysin amidase domain upstream of the lysostaphin CWT domain (protein)
chain: MVSSQKTSSLPKYTPKVNSSINNYIRKKNMKAPRIEEDYTSYFPKYGYRNGVGRPEGIVVHDTANDNSTIDGEIAFMKRNYTNAFVHAFVDGNRIIETAPTDYLSWGAGPYGNQRFINVEIVHTHDYDSFARSMNNYADYAATQLQYYNLKPDSAENDGRGTVWTHAAISNFLGGTDHADPHQYLRSHNYSYAELYDLIYEKYLIKTKQVAPWGTTSTKPSQPSKPSGGTNNKLTVSANRGVAQIKPTNNGLYTTVYDSKGHKTDQVQKTLSVTKTATLGNNKFYLVEDYNSGKKYGWVKQGDVVYNTAKAPVKVNQTYNVKAGSTLYTVPWGTPKQVASKVSGTGNQTFKATKQQQIDKATYLYGTVNGKSGWISKYYLTTASKPSNPTKPSTNNQLTVAGQTIHYDEVMKQDGHTNNSGVAQINAKNSGLYTTVYDTKGKTTNQIQRTLSVTKAATLGDKKFYLVGDYNTGTNYGWVKQDEVIYNTAKSPVKINQTYNVKPGVKLHTVPWGTYNQVAGTVSGKGDQTFKATKQQQIDKATYLYGTVNGKSGWISKYYLLQTPNTGWKTNKYGTLYKSESASFTPNTDIITRTTGPFRSMPQSGVLKVWVGYTGNSGQRIYLPVRTWNKSTNTLGVLWGTIK
modifications: Chimeric of Staphylococcus epidermidis autolysin amidase domain and Staphylococcus simulans metalloendopeptidase Lysostaphin CWT domain
As to B1, the “solubility of the expressed protein” value in data set [1] is “very soluble”. For the same molecule, in the data set with S. aureus, the “effect on S. aureus cells when exposed” value was “clumped” and the “lytic/killing activity against S. aureus” value is given as “no lytic activity”.

B2: AD 119: Twort lysin endopeptidase domain upstream of the lysostaphin CWT domain (protein)
chain: METLKQAESYIKSKVNTGTDFDGLYGYQCMDLAVDYIYHVTDGKIRMWGNAKDAINNSFGGTATVYKNYPAFRPKYGDVVVWTTGNFATYGHIAIVTNPDPYGDLQYVTVLEQNWNGNGIYKTELATIRTHDYTGITHFIRPNFATESSVKKKDTKKKPKPSNRDGLNKDKIVYDRTNINYNMVLQTPNTGWKTNKYGTLYKSESASFTPNTDIITRTTGPFRSMPQSGVLKAGQTIHYDEVMKQDGHVWVGYTGNSGQRIYLPVRTWNKSTNTLGVLWGTIK
modifications: Chimeric of Staphylococcus aureus bacteriophage Twort domain and Staphylococcus simulans metalloendopeptidase Lysostaphin CWT domain
With B2, the “solubility of the expressed protein” value in data set [1] is listed as “soluble”. Moreover, in the data set on S. aureus, the “lytic/killing activity against S. aureus” value is given as “did not show significant activity”.

B3: AD 105: PlyB with its C-terminal CWT domain replaced by the putative C-terminal domain of S. aureus phage Twort lysin (protein)
chain: MGYIVDMSKWNGSPDWDTAKGQLDLVIARVQDGSNYVDPVYKDYVAAMKARNIPFGSYAFCRFVSVEDAKVEARDFWNRGDKDSLFWVADVEVTTMSDMRAGTQAFIDELYRLGAKKVGLYVGHHKYEEFGAAQIKCDFTWIPRYGAKPAYPCDLWQYDEYGQVPGIGKCDLNRLNGDKSLDWFTGKGEEAVQWNVNNYGTYYKSESATFKCTARQGIVTRYTGPFTTCPQAGVLYYGQSVTYDTVCKQDGYVWISWTTNGGQDVWMPVRTWDKNTDIMGQLWGDIY
modifications: Cimeric of Bacillus-specific phage lysin PlyB catalytic domain and Staphylococcus aureus bacteriophage Twort domain
As to B3, in the data set with S. aureus, the “lytic/killing activity against S. aureus” value is “not active”.

B4: AD 107: lysostaphin CWT domain downstream of PlyB-catalytic domain (protein)
chain: MGYIVDMSKWNGSPDWDTAKGQLDLVIARVQDGSNYVDPVYKDYVAAMKARNIPFGSYAFCRFVSVEDAKVEARDFWNRGDKDSLFWVADVEVTTMSDMRAGTQAFIDELYRLGAKKVGLYVGHHKYEEFGAAQIKCDFTWIPRYGAKPAYPCDLWQYDEYGQVPGIGKCDLNRLNGDKSLDWFTGKGEEAVQLQTPNTGWKTNKYGTLYKSESASFTPNTDIITRTTGPFRSMPQSGVLKAGQTIHYDEVMKQDGHVWVGYTGNSGQRIYLPVRTWNKSTNTLGVLWGTIK
modifications: Chimeric of Bacillus-specific phage lysin PlyB catalytic domain and Staphylococcus simulans metalloendopeptidase Lysostaphin CWT domain
Consider B4, for which the “solubility of the expressed protein” value in data set [1] is “poor”. Further, the “lytic/killing activity against S. aureus” value in the data set with S. aureus is on record as “no activity”.

B5: AD 126: S. epidermidis autolysin amidase domain upstream of phiNM3 CWT domain (protein)
chain: MVSSQKTSSLPKYTPKVNSSINNYIRKKNMKAPRIEEDYTSYFPKYGYRNGVGRPEGIVVHDTANDNSTIDGEIAFMKRNYTNAFVHAFVDGNRIIETAPTDYLSWGAGPYGNQRFINVEIVHTHDYDSFARSMNNYADYAATQLQYYNLKPDSAENDGRGTVWTHAAISNFLGGTDHADPHQYLRSHNYSYAELYDLIYEKYLIKTKQVAPWGTTSTKPSQPSKPSGGTNNKLTVSANRGVAQIKPTNNGLYTTVYDSKGHKTDQVQKTLSVTKTATLGNNKFYLVEDYNSGKKYGWVKQGDVVYNTAKAPVKVNQTYNVKAGSTLYTVPWGTPKQVASKVSGTGNQTFKATKQQQIDKATYLYGTVNGKSGWISKYYLTTASKPSNPTKPSTNNQLTVTNNSGVAQINAKNSGLYTTVYDTKGKTTNQIQRTLSVTKAATLGDKKFYLVGDYNTGTNYGWVKQDEVIYNTAKSPVKINQTYNVKPGVKLHTVPWGTYNQVAGTVSGKGDQTFKATKQQQIDKATYLYGTVNGKSGWISKYYLLQGLMNKITNKVKPPAQKAVGKSASKITVGSKAPYNLKWSKGAYFNAKIDGLGATSATRYGDNRTNYRFDVGQAVYAPGTLIYVFEIIDGWCRIYWNNHNEWIWHERLIVKEVF
modifications: Chimeric of Staphylococcus epidermidis autolysin amidase domain and Staphylococcus aureus phage pniNM3 CWT domain
Take B5: the “lytic/killing activity against S. aureus” value in the data set on S. aureus is “no expression or activity”.
